Measured values from patent publication US20060210568A1, “Methods and compositions for cancer treatment” (priority 2003, published 2006).
Entries after “also recorded” stand apart in the source; their conditions may differ.

Key:
Format in all cases: cell-based, human
MCF-7 cells [1] = assay: FACS analysis of apoptosis and G1 phase; conditions: ADRP-MCF-7 versus EV-MCF-7 cells
Source text: Increased of percentage of cells in apoptosis and in G1 phase is shown by FACS analysis of ADRP-MCF-7 cells and EV-MCF-7 cells.

bcl-2 = bcl-2 expression in ADRP MCF-7 versus control MCF-7 cells; conditions: ADRP overexpressing versus empty vector control cells, FIG. 5
Source text: This is shown by down-regulation of bcl-2 in ADRP MCF-7 cells when compared to control MCF-7 cells. […] In other words, ADRP overexpression sensitizes the cells to apoptotic stimuli.

[2] = system: beta casein expression in MCF-7 cells; assay: beta casein expression by RT-PCR as marker of breast cancer cell differentiation; conditions: versus control cells with no detectable level, FIG. 3A
Source text: We then explored whether growth inhibition of cells overexpressing ADRP was accompanied by stimulated differentiation of the cells. In order to investigate this possibility, we measured the expression of markers of differentiation such as beta casein in the ADRP expressing cells when compared to EV cells. Beta casein is routinely used as a marker of mammary epithelial cell differentiation. We show by RT-PCR that the ADRP overexpressing cells express high level of casein mRNA. In contrast, the control cells had no detectable level of the gene product (see FIG. 3A). In FIG. 3A, GAPDH (Glyceraldehyde-3-phosphate dehydrogenase) loading was used as an internal control for equal sample mRNA expression. […] Measurement of Beta casein expression as marker of breast cancer cell differentiation was by RT-PCR as described above.

MCF-7 cells [3] = assay: Oil Red O staining of lipid droplets; conditions: ADRP overexpressing versus EV MCF-7 cells, FIG. 4B
Method: This is also supported by the fact that ADRP overexpressing cells accumulated lipid droplets at a higher level (higher number of droplets per cells and higher number of cells having droplets than the empty vector control MCF-7 cells as shown in FIG. 4A and FIG. 4B. A 5-fold increase in lipid droplets accumulation was observed (FIG. 4B). Specifically, cells were plated at the concentration of 2×10^5 per 35-mm dish in 5% FBS DMEM/F12. After 48 h of incubation, cells were washed once with PBS and fixed in 4% formalin for 30 min. Oil Red O working solution was added to cover all the cells, and the cells were incubated at 37° C. for 1 h. The Working Solution was prepared by mixing 6 ml 0.5% Oil Red O in isopropanol with 4 ml H2O, and centrifuging at 4000 g for 10 min to remove sediments. The plates were washed with tap water twice. Cells were counterstained by Hematoxylin QS (Vector Laboratories, California) for 45 sec, and washed with tap water.

[4] = system: ADRP overexpressing cells (MCF7-C4); assay: proliferation assay, ADRP overexpressing MCF-7 cells; conditions: serum containing medium, with or without hormones and growth factors, FIGS. 1 and 2
Method: The vector used to over-express ADRP in MCF-7 cells is the ADRP-pcDNA3 vector described in Gao and Serrero, 1999. The G418 resistance gene was used as selectable marker. MCF-7 cells were transfected with the ADRP-pcDNA3 plasmid, using the lipofectamine method. Specifically, MCF-7 cells (WT) were plated onto 60-mm dish at the concentration of 2×10^5 cell per plate in 5% fetal bovine serum (FBS) in DMEM/F12 (1:1 mixture of Dulbecco's modified Eagle's medium and Ham' nutrient F12 medium) overnight before transfection. Cells were washed once with serum-free DMEM/F12 (without antibiotic). The lipofectamine method was used for the transfection. Specifically, 2 μg mouse ADRP pcDNA3 construct was used. Transfection was carried on according to manufacturer's recommendations, with 15 μl of lipofectamine and 5 hours of incubation. After transfection, the medium was replaced with 5% FBS DMEM/F12 and the cells were incubated overnight. G418 at the concentration of 800 μg/ml was added the day after for selection. Cells were selected with this medium for 3 weeks. Six clones were isolated and subjected to RT-PCR to determine the existence of the transfection construct. […] Cell numbers were counted by hemacytometer every two days. […]

B1: ADRP: 50-kDa adipose differentiation related protein, over-expressed in MCF-7 cells by transfection with mouse ADRP pcDNA3 construct (protein, UniProt P43883 2-425, looked up)
Perilipin-2: AAAVVDPQQSVVMRVANLPLVSSTYDLVSSAYVSTKDQYPYLRSVCEMAEKGVKTVTSAAMTSALPIIQKLEPQIAVANTYACKGLDRMEERLPILNQPTSEIVASARGAVTGAKDVVTTTMAGAKDSVASTVSGVVDKTKGAVTGSVERTKSVVNGSINTVLGMVQFMNSGVDNAITKSELLVDQYFPLTQEELEMEAKKVEGFDMVQKPSNYERLESLSTKLCSRAYHQALSRVKEAKQKSQETISQLHSTVHLIEFARKNMHSANQKIQGAQDKLYVSWVEWKRSIGYDDTDESHCVEHIESRTLAIARNLTQQLQTTCQTVLVNAQGLPQNIQDQAKHLGVMAGDIYSVFRNAASFKEVSDGVLTSSKGQLQKMKESLDEVMDYFVNNTPLNWLVGPFYPQSTEVNKASLKVQQSEVKAQ
modifications: expressed from pcDNA3
notes: 50-kDa adipose differentiation related protein, over-expressed in MCF-7 cells by transfection with mouse ADRP pcDNA3 construct
- percentage of cells in apoptosis and in G1 phase (MCF-7 cells [1]): Increased
- Bcl-2 expression (bcl-2): dramatically decreased; also recorded: much lower level
- casein mRNA expression in ADRP overexpressing cells [2]: stimulation of casein expression; also recorded: high level
- increase in lipid droplets accumulation (MCF-7 cells [3]): ~5 fold
- growth of cells over-expressing ADRP [4]: grow very slowly
